Biological target: Purified Mor1 (Example 9) (Mus musculus (Mouse)) (UniProt P42866)
Experiment: cell-based or functional assay

Sequence of Heterotrimeric Gi (P63096 2-354): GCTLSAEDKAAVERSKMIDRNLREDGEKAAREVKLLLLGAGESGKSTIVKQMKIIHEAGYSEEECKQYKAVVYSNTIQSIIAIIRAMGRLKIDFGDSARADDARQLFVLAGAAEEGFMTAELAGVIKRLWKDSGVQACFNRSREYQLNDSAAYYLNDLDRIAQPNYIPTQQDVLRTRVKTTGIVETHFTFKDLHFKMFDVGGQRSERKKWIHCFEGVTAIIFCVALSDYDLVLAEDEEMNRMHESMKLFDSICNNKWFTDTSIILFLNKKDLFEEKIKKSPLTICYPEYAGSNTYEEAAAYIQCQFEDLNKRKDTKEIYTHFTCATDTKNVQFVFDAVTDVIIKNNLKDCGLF
Sequence of Heterotrimeric Gi (P62873 2-340): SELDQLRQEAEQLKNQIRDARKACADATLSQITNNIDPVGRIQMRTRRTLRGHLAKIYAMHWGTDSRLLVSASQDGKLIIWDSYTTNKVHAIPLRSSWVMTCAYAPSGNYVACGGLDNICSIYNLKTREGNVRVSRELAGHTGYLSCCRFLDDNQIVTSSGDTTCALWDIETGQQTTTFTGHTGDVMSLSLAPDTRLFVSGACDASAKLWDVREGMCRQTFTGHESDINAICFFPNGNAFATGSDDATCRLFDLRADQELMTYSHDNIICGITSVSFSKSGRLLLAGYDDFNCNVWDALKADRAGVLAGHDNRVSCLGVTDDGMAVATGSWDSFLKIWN

Substance: Heterotrimeric Gi (from UniProt P63096 2-354; P62873 2-340)
- enhancement of agonist (BU72) affinity for Mor1 in HDL particles: 220 fold
